Assay results as given in paper PMC6477179, “FIP200 Claw Domain Binding to p62 Promotes Autophagosome Formation at Ubiquitin Condensates” (Molecular Cell, 2019).
Residue numbers refer to the chain shown, from its start. In names and notes the source's numbering stands.

B1: GST-p62 FIR 3P (domain or fragment, human, UniProt Q13501 326-380, looked up)
chain: MESDNCSGGDDDWTHLSSKEVDPSTGELQSLQMPESEGPDDLDPDQEGPTGLKEA
notes: also called 3P (S365D, S366D, S370D); triple mutant; source: E. coli Rosetta (DE3) pLysS, purified (GSTrap, SEC)
B2: GST-p62 FIR 4P (domain or fragment, human, UniProt Q13501 326-380, looked up)
chain: B1 chain with S24D
notes: also called 4P (S349D, S365D, S366D, S370D); quadruple mutant; source: E. coli Rosetta (DE3) pLysS, purified (GSTrap, SEC)
B3: FIP200 Claw (aa 1494-1594) (domain or fragment, human, UniProt Q8TDY2 1494-1594, looked up)
chain: EKIAIRDFQVGDLVLIILDERHDNYVLFTVSPTLYFLHSESLPALDLKPGEGASGASRRPWVLGKVMEKEYCQAKKAQNRFKVPLGTKFYRVKAVSWNKKV
modifications: selenomethionine-substituted (crystal)
notes: FIP200 (RB1CC1), human, Claw domain, residues 1494-1594; one monomer in the asymmetric unit, dimer by a crystallographic 2-fold; also called isolated Claw domain; FIP200 Claw domain; source: E. coli BL21(DE3), purified (Ni-NTA, TEV, Superdex 75)
B4: FIP200 CTR (aa 1458-1594) (domain or fragment, human, UniProt Q8TDY2 1458-1594, looked up)
chain: RIMLLERTLQLKEEENKRLNQRLMSQSMSSVSSRHSEKIAIRDFQVGDLVLIILDERHDNYVLFTVSPTLYFLHSESLPALDLKPGEGASGASRRPWVLGKVMEKEYCQAKKAQNRFKVPLGTKFYRVKAVSWNKKV
notes: FIP200 (RB1CC1), human, C-terminal region, residues 1458-1594; source: E. coli Rosetta2 (DE3), purified (Ni-NTA, TEV, Superdex S75); not shown: His6, N-terminal, cleaved
B5: GST-FIP200 CTR aa 1429-1594 (domain or fragment, human, UniProt Q8TDY2 1429-1594, looked up)
chain: ADEGRVDSAMETSMMSVQENIHMLSEEKQRIMLLERTLQLKEEENKRLNQRLMSQSMSSVSSRHSEKIAIRDFQVGDLVLIILDERHDNYVLFTVSPTLYFLHSESLPALDLKPGEGASGASRRPWVLGKVMEKEYCQAKKAQNRFKVPLGTKFYRVKAVSWNKKV
notes: FIP200 (RB1CC1), human, C-terminal region, residues 1429-1594; cloned in pGEX 4T1; also called FIP200 C-terminal region (CTR); source: E. coli Rosetta (DE3) pLysS, purified (GSTrap, SEC)
B6: GFP-FIP200 CTR aa 1429-1594 (domain or fragment, human, UniProt Q8TDY2 1429-1594, looked up)
chain: B5 chain
notes: FIP200 (RB1CC1), human, C-terminal region, residues 1429-1594; source: E. coli Rosetta (DE3) pLysS, purified (HisTrap, TEV, SEC); not shown: His6, N-terminal, cleaved; GFP, N-terminal, kept
B7: GST-p62 aa334-356 (domain or fragment, human, UniProt Q13501 334-356, looked up)
chain: GDDDWTHLSSKEVDPSTGELQSL
notes: p62/SQSTM1, human, residues 334-356; also called pGEX-p62 aa334-356; source: E. coli Rosetta (DE3) pLysS, purified (GSTrap, SEC)

Columns and labels:
[1] = target: T1, GFP-FIP200 CTR aa 1458-1594 (human, UniProt Q8TDY2 1458-1594); assay: microscopy-based protein-protein interaction assay (bait on beads); GST-tagged bait on glutathione Sepharose 4B beads, 2-5 μM fluorescently labeled prey not washed away (equilibrium), 25 mM HEPES pH 7.5, 150 mM NaCl, 1 mM DTT, 30 min to 1 h at room temperature or 4°C; confocal or spinning disk microscopy; conditions: both partners purified
T1 construct: FIP200 (RB1CC1), human, C-terminal region, residues 1458-1594; also called GFP-FIP200 CTR WT; WT GFP-FIP200 CTR; source: E. coli Rosetta (DE3) pLysS, purified (HisTrap, TEV, SEC); not shown: His6, N-terminal, cleaved; GFP, N-terminal, kept

GFP-FIP200 CTR N1517F = target: T2, GFP-FIP200 CTR N1517F (human, UniProt Q8TDY2 1458-1594, N1517F); assay: as above; conditions: both partners purified
T2 construct: FIP200 (RB1CC1), human, C-terminal region, residues 1458-1594; source: E. coli Rosetta (DE3) pLysS, purified (HisTrap, TEV, SEC); not shown: His6, N-terminal, cleaved; GFP, N-terminal, kept

[2] = target: T3, FITC-labeled full-length FIP200 (FITC-FIP200-MBP) (human, UniProt Q8TDY2 1-1594, FITC-LPETGG peptide joined to the N-terminal glycine by Δ59SortaseA (FITC on the N-terminus)); assay: as above; conditions: both partners purified
T3 construct: FIP200 (RB1CC1), human, full length; pCAG vector; also called Gly-FIP200-MBP; source: HEK293-GnT1 suspension cells, purified (Glutathione Sepharose, TEV, amylose resin, Superose 6); not shown: GST, N-terminal, cleaved; MBP, C-terminal, kept

[3] = target: the molecule itself; assay: crystal structure; FIP200 Claw aa 1494-1594, SeMet crystal, 1.56 Å, space group C2221, one monomer in the asymmetric unit; 0.1 M HEPES pH 7.4, 2 M ammonium sulfate
[4] = target: the molecule itself; assay: SEC with right-angle light scattering; 100 μl of 3 mg/ml FIP200 CTR on Superdex S75 10/300 with RALS-refractive index detector; 25 mM HEPES pH 7.5, 150 mM NaCl
mCherry-p62 wt [5] = target: T4, mCherry-p62 wt (human, UniProt Q13501 1-440); assay: microscopy-based protein-protein interaction assay (bait on beads); GST-tagged bait on glutathione Sepharose 4B beads, 2-5 μM fluorescently labeled prey not washed away (equilibrium), 25 mM HEPES pH 7.5, 150 mM NaCl, 1 mM DTT, 30 min to 1 h at room temperature or 4°C; confocal or spinning disk microscopy; conditions: both partners purified
T4 construct: p62/SQSTM1, human, full length; also called full-length mCherry-p62 WT; source: E. coli, purified as previously described (Wurzer et al., 2015)

mCherry-p62 LIRmut = target: T5, mCherry-p62 LIRmut (human, UniProt Q13501 1-440, residues 335-338 are mutated to Ala); assay: as above; conditions: both partners purified
T5 construct: p62/SQSTM1, human, full length, LIR motif mutated; also called the LIR mutant; source: E. coli, purified as previously described (Wurzer et al., 2015)

mCherry-p62 wt [6] = target: T4, mCherry-p62 wt; assay: microscopy-based protein-protein interaction assay (bait on beads); GSH beads coated with GST-2x ubiquitin, excess washed off, incubated with mCherry-p62 (2 μM) and GFP-FIP200 CTR (5 μM) for 1 h, imaged by microscopy; conditions: both partners purified
[7] = target: B6; assay: microscopy-based protein-protein interaction assay (bait on beads); GST-tagged bait on glutathione Sepharose 4B beads, 2-5 μM fluorescently labeled prey not washed away (equilibrium), 25 mM HEPES pH 7.5, 150 mM NaCl, 1 mM DTT, 30 min to 1 h at room temperature or 4°C; confocal or spinning disk microscopy; conditions: both partners purified

Binder: B1
- binding result [1]: binds

Binder: B2
- binding result (GFP-FIP200 CTR N1517F): binds
- binding result [1]: binds
- binding result [2]: binds

Binder: B3
- binding result [3]: binds

Binder: B4
- stoichiometry N [4]: 2

Binder: B5
- binding result (mCherry-p62 wt [5]): binds
- binding result (mCherry-p62 LIRmut): binds

Binder: B6
- binding result (mCherry-p62 wt [6]): binds

Binder: B7
- binding result [7]: binds
